Positions count from the first letter of the chain named. Like-named read-outs stand apart in the source and are kept apart here.
B1: Antibody 12 (antibody, V domains shown)
VH: EVKLVESGGGLVQPGGSLSLSCAVSGFIFTDYFMSWVRQPPGKTLEWLALIRNKANGYIIEYSESVKGRFTISRGNSQSIFYLQMNALRTEDSATYYCARDIGIRWNFDVWGAGTTVTVSS
VL: QIVLTQSPAIMSASPGEKVTMTCSATSRVTYMHWYQQKSGTSPKRWIYATSTLASGVPARFSGSGSGTSYSLTISSMEAEDAATYYCQQWSYNPPTFGSGTKLEIK
notes: Mouse-derived hybridoma antibody; also called mouse-derived antibody 12
B2: Antibody 3 (antibody, V domains shown)
VH: EVQMVESGGGLVKPGGSLKLSCAASGFTFSDYYMYWVRQSPEKRLEWVATISDAGTYTSYLDSVKGRFIISRDNAKNNLYLQMSSLKSEDTAIYYCARNYYGSSPYGMDYWGQGTSVTVSS
VL: B1 VL with T26S, R28S, T30I, A49D, T52K, Y92S, N93H, P95L, S99A, I105L
notes: Mouse-derived hybridoma antibody; also called mouse-derived antibody 3
B3: Antibody 4 (antibody, V domains shown)
VH: QIQLVQSGPELKKPGETVKISCKASGYTFTDYSLHWVKQVPVKGLKWMGWINTETGEPTYADDFKGRFAFSLDTSASSAYLQIHNLKNEDTATYFCASPVSLLFYYFTVWGAGTTVTVSA
VL: DIQMTQTTSSLSASLGDRVTISCRASQDISHFLNWYQQKPDGTVELLIYYTSRLLSGVPSRFSGSGSGTDYSLTIANLEQEDIATYFCQQGKTLPWTFGGGTKVEIK
notes: Mouse-derived hybridoma antibody; also called mouse-derived antibody 4
B4: Antibody E (antibody, human IgG1, kappa, V domains shown)
VH: EVQLVESGGGLVQPGGSLRLSCATSEFTLIDYYMSWVRQAPGKALEWVGYIRNKVNGHTTDYIASVKGRFTISRDDSKNSLYLQMNSLKTEDTAVYYCVRDPGINWYFDVWGQGTLVTVSS
VL: EIVLTQSPATLSLSPGERATLSCRASSRVTYMHWYQQKPGQSPRPLISATSNLASGIPARFSGSGSGTDYTLTISSLEPEDFAVYYCQQWSYNPPTFGGGTKLELKR
notes: humanized from mouse-derived antibody 2; also called humanized antibody E
B5: Antibody F (antibody, human IgG1, kappa, V domains shown)
VH: B4 VH
VL: B4 VL with E1Q, Q41S, R44K, V84T
notes: humanized from mouse-derived antibody 2; also called humanized antibody F
B6: Antibody 5 (antibody, V domains shown)
VH: QIQLVQSGPELMKPGETVKISCKASGYTFTNYGMNWVKQAPGKGLKWLGWINTYTGKPTYADDIKERFVFSLETSASTAYLQINNLKNEDTATYFCARRDYRGWYFDVWGAGTPVTVSS
VL: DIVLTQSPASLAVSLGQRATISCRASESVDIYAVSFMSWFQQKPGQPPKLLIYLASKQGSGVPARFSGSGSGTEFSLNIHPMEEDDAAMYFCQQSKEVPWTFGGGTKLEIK
notes: Mouse-derived hybridoma antibody; also called mouse-derived antibody 5
B7: Antibody 2 (antibody, V domains shown)
VH: EVKLVESGGGLVQPGGSLRLSCATSEFTLIDYYMSWVRQSPGKALEWLGYIRNKVNGHTTDYIASVKGRFAISRDNSQSILYLQMNTLRVEDSATYYCVRDPGINWYFDVWGAGTTVTVSS
VL: QIVLSQSPAILSASPGEKVTMTCRASSRVTYMHWYQQKPGSSPKPWISATSNLASGVPARFSGSGSGTSYSLTISRVEAEDAATYYCQQWSYNPPTFGAGTKLELN
notes: Mouse-derived hybridoma antibody; also called mouse-derived antibody 2

Tests used:
[1] = biological target: T1, human CEACAM5-his (ACRO CE5-H5226) (human, UniProt P06731 35-685); experiment: ELISA on coated human CEACAM5, OD450
T1 construct: Bought protein; not shown: His tag
T1 sequence (looked up): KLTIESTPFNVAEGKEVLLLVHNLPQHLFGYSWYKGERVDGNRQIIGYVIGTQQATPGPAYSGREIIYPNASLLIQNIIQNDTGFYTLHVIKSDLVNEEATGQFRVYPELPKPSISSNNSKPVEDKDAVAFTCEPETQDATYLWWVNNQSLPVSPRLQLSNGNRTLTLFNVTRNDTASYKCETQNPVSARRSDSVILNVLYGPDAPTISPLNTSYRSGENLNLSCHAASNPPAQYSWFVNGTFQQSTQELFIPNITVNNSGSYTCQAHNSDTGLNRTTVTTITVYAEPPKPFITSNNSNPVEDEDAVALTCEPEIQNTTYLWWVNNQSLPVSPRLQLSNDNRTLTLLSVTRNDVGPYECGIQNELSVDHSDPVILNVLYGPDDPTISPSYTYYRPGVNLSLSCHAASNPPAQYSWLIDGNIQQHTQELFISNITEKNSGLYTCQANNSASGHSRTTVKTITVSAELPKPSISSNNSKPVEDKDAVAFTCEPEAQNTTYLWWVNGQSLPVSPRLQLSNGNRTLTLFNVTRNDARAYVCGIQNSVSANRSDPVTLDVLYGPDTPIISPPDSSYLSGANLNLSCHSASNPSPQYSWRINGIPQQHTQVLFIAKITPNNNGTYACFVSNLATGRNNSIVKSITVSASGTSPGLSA
Protocol: (§1) The binding activity of the antibodies to human CEACAM5, human CEACAM6, and human CEACAM6 (AB) proteins was detected by ELISA. The plate coated with proteins was incubated at 4° C. overnight, and the 96-well ELISA plate blocked with 2% PBS-BSA was added with the antibody to be detected and incubated at 37° C. for 1 h. After washing 3 times with PBS containing 0.05% Tween, the absorbance value of each well was read at wavelength 450 nm with the gradient-diluted mouse-derived candidate antibody as the primary antibody and anti-mouse-IgG-FC-HRP as the secondary antibody, and the absorbance value of each well was read at wavelength 450 nm after the TMB color development.

Human-CEACAM6 (AB)-His = biological target: T2, Human-CEACAM6 (AB)-His (human, UniProt P40199 145-314); experiment: ELISA on coated human CEACAM6 (AB), OD450
T2 construct: Made in house, purified on a nickel column
T2 sequence (P40199 other isoform, or with tags, fused parts or gaps limits assumed): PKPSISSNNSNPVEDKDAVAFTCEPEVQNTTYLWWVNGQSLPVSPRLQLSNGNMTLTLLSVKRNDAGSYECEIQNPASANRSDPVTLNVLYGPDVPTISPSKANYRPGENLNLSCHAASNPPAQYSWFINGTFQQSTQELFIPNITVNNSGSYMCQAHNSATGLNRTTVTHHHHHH
Protocol: as §1

[2] = biological target: T1, human CEACAM5-his (ACRO CE5-H5226); experiment: ELISA on coated human CEACAM5, OD450; remark: listed apart in the source
Protocol: as §1

[3] = biological target: T3, CEACAM5 on the surface of the tumor cells (HPAFII cells) (UniProt P06731 35-685); experiment: flow cytometry on HPAFII cells (Mean-FITC); the cells carry CEACAM5 and CEACAM6, signal not divided between the two
T3 construct: whole, on cells
T3 sequence (looked up): T1 sequence (looked up)
Protocol: (§2) The antibody to be tested was taken as the initial concentration of 200 nM and diluted 5-fold with 6 gradients. The HPAFII cells (From USTC […] FOR ADVANCED STUDIES) in the incubator were taken out, and the cell suspension was transferred to a 15 mL centrifuge tube, centrifuged, and counted by resuspension in PBS. A blank control group (Blank), a negative control group (NC), an experimental group, a positive control group and the irrelevant antibody group were kept. […] The cell suspension was spread in a 96-well plate according to about 3×10⁵ cells/well. Centrifugation (1000 rpm, 5 min) was performed, followed by washing with PBS, re-centrifugation, and repeated twice to remove media residues. The supernatant was discarded, 100 μL of primary antibody solution and irrelevant antibody solution were added to the experimental group and irrelevant antibody group, respectively, and the cells were resuspended and incubated at room temperature for 1 h. The blank group, and the negative control group were incubated with an equal amount of PBS.
(§3) After 1 h, PBS was added to wash twice. After the supernatant was discarded, 100 μL of fluorescent secondary antibody dilution (Mouse-derived secondary antibody from Abcam ab6785) was added to each sample group, except for the blank group which was added with 100 μL of PBS. After incubation at room temperature and protected from light for 0.5 h, centrifugation was performed and PBS added to wash the samples twice. After the supernatant was discarded, 120 μL of PBS was added to resuspend and sequentially flow cytometry was performed to detect the mean fluorescence intensity. The concentration of the antibody was logarithmically taken as the horizontal coordinate, and the Sigmoidaldose-response (VariableSlope) method (GraphPadPrism Software, GraphPadSoftware, San Diego, California) was chosen to perform a nonlinear regression to obtain the binding activity curves of the antibody on HPAFII cells.

[4] = biological target: T4, CEACAM6 on the surface of the tumor cells (HPAFII cells) (UniProt P40199 35-320); experiment: as above
T4 construct: whole, on cells
T4 sequence (looked up): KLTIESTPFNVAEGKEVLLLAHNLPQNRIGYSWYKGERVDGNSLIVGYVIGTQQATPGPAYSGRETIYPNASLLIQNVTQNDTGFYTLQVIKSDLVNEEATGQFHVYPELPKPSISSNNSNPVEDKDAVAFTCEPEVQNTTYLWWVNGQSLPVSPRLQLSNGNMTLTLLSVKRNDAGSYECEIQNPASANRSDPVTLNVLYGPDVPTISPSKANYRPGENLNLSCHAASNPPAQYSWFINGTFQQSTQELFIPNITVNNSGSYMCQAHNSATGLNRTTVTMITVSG
Protocol: as §2, §3

[5] = biological target: T4, CEACAM6 on the surface of the tumor …; experiment: flow cytometry on HPAFII cells (Mean PE); the cells carry CEACAM5 and CEACAM6, signal not divided between the two
Protocol: Centrifugation (1000 rpm, 5 min) was performed, followed by washing with PBS, re-centrifugation, and repeated twice to remove media residues. The supernatant was discarded, 100 μL of primary antibody solution and irrelevant antibody solution were added to the experimental group and irrelevant antibody group, respectively, and the cells were resuspended and incubated at room temperature for 1 h. The blank group, and the negative control group were incubated with an equal amount of PBS.
as §3, with “(Secondary” for “(Mouse-derived secondary”, “ab98596)” for “ab6785)”

mouse CEACAM5 = biological target: T5, mouse CEACAM5 (mouse, UniProt Q3UKK2 35-947, limits assumed); experiment: ELISA on coated protein, OD450
T5 sequence (looked up): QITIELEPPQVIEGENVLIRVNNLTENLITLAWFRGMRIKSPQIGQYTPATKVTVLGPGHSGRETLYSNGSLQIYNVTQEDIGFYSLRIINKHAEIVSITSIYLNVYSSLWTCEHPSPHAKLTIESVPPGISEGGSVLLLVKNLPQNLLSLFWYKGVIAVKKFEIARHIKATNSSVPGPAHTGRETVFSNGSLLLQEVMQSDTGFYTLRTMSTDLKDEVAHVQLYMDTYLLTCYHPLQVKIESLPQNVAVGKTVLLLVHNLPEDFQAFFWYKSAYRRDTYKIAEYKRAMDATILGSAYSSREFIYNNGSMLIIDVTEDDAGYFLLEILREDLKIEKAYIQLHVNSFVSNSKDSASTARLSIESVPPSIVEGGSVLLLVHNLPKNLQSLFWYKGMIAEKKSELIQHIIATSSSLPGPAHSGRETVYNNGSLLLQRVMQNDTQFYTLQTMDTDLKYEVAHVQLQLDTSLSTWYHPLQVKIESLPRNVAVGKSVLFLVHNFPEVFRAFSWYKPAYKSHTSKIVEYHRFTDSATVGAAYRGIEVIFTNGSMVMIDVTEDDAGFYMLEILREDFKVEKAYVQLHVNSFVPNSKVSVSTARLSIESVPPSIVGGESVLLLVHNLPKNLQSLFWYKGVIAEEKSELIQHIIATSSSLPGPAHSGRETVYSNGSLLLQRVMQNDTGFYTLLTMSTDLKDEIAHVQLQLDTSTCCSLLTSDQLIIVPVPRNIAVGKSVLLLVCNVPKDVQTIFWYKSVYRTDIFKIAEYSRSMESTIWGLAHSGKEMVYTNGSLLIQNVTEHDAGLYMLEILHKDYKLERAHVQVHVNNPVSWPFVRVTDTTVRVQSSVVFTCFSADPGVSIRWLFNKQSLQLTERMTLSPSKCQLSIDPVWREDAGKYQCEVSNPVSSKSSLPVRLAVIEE
Protocol: The affinity of the antibodies to monkey CEACAM5, monkey CEACAM6, and mouse CEACAM5 proteins was determined by ELISA. The plates encapsulated with […] proteins were incubated at 4° C. overnight, and the antibodies to be detected were added to 96-well ELISA plates after being blocked with 2% PBS-BSA and incubated at 37° C. for 1 h. After washing 3 times with PBS containing 0.05% Tween, the absorbance value of each well was read at wavelength 450 nm with the antibody to be detected as the primary antibody and Goat anti-mouse IgG-FC-HRP as the secondary antibody, and the absorbance value of each well was read at wavelength 450 nm after the TMB color development. The specific binding to CEACAM5 and CEACAM6 of mouse and monkey was detected by Elisa method.

EC50 (read off the curve) [2] | EC50 (read off the curve) [3] | EC50 (read off the curve) [4] | other results | Binder
 |  |  | EC50 (read off the curve) [1]: ~0.02 µg/mL; EC50 (read off the curve) (Human-CEACAM6 (AB)-His): ~0.009 µg/mL | B1
~0.02 µg/mL | ~1 nM | ~1 nM |  | B2
~0.02 µg/mL | ~2 nM | ~2 nM |  | B3
 |  |  | binding result [5]: binds | B4
 |  |  | binding result [5]: binds | B5
 |  |  | binding result [2]: binds; EC50 (read off the curve) (Human-CEACAM6 (AB)-His): ~0.04 µg/mL | B6
~0.02 µg/mL | ~3 nM | ~3 nM | OD (mouse CEACAM5): 0.15 OD | B7
